In the RNAGym collection of RNA variant scans (doi:10.7554/elife.80360) one finds self-cleavage data, which are given here for 167 variants.

B1: Twister Ribozyme (parent)
chain: AACACUGCCAAUGCCGGUCCCAAGCCCGGAUAAAAGUGGAGGGGGCGG

Variants of B1 are the subject of this series. In words: self-cleavage, relative activity (ratio to wild type); higher = more cleavage; co-transcriptional.
As for A2C G44C, the self-cleavage was 0.035.

For the variant C21A U37C, the self-cleavage turned out to be 0.115.

As for A32G G44C, the self-cleavage is 0.907.

On to A11C G42C, for which the self-cleavage stood at 0.419.

With C46A G47U, the self-cleavage stood at 0.832.

In the case of G29C G39A, the self-cleavage was determined as 0.143.

Turning to C8U C27A, the self-cleavage came out at 0.0891.

U6A A34G: the self-cleavage was 0.731.

Take A22C G41C: the self-cleavage was found to be 0.195.

For A11C A32C, the self-cleavage is 0.769.

As to U37G G43A, the self-cleavage was 0.13.

In the case of C15G G16C, the self-cleavage came to 0.305.

C27G G43C: the self-cleavage came to 0.0881.

Turning to G17C C46G, the self-cleavage came out at 0.139.

In the case of U6G G38A, the self-cleavage turned out to be 0.315.

With U6G C46A, the self-cleavage is 0.411.

For A2C A33C, the self-cleavage was determined as 0.0306.

Consider C25U A40C, for which the self-cleavage was found to be 0.109.

Turning to C21U G45C, the self-cleavage is 0.0779.

Regarding C21U G45A, the self-cleavage amounted to 0.123.

On to A23C G39A, for which the self-cleavage came out at 0.127.

Take A40C G42C: the self-cleavage stood at 0.164.

Turning to G13U C46A, the self-cleavage was 0.361.

With C3A G44U, the self-cleavage stood at 0.253.

Consider A2G G24C, for which the self-cleavage was 0.0995.

As for A4G A22C, the self-cleavage is 1.01.

Regarding G24A A34C, the self-cleavage stood at 0.0735.

On to C3A G17U, for which the self-cleavage stood at 0.0649.

For A22G A32G, the self-cleavage was 0.25.

For G43C G47U, the self-cleavage came to 0.13.

On to G36A G45C, for which the self-cleavage stood at 0.256.

For G43C G48C, the self-cleavage came out at 0.219.

On to G13A U18A, for which the self-cleavage is 0.0831.

As to A11C U12G, the self-cleavage came to 0.971.

A1G G43U: the self-cleavage amounted to 0.243.

In the case of G13A C46U, the self-cleavage was 0.931.

As to G7U G47A, the self-cleavage came to 0.0641.

For the variant C5U U18G, the self-cleavage came to 0.066.

With C8U A23C, the self-cleavage was determined as 0.0653.

A33G G38U: the self-cleavage worked out at 0.861.

Consider A1C A22C, for which the self-cleavage was determined as 0.134.

Regarding C5A C46U, the self-cleavage came out at 0.681.

G38U G41C: the self-cleavage was 0.149.

Consider G17C C20U, for which the self-cleavage is 0.0836.

C15A C20A: the self-cleavage worked out at 0.0707.

With A1U G44U, the self-cleavage worked out at 0.0595.

As for C20U G47U, the self-cleavage stood at 0.564.

In the case of A4C U6A, the self-cleavage is 0.0472.

For the variant A34U A40G, the self-cleavage turned out to be 0.122.

Take G13C U31G: the self-cleavage worked out at 0.585.

For U18A A34U, the self-cleavage is 0.0942.

On to U18A A34G, for which the self-cleavage came to 0.171.

Regarding C26A G36C, the self-cleavage was determined as 0.105.

As for U6A G45C, the self-cleavage is 0.254.

As for A22C U37A, the self-cleavage worked out at 0.84.

For the variant A4U C46A, the self-cleavage is 0.115.

With A10U A34C, the self-cleavage is 0.279.

Consider G7A C19G, for which the self-cleavage turned out to be 0.0847.

For G7U G28C, the self-cleavage is 0.0665.

Regarding U31C A33C, the self-cleavage was 0.925.

On to G13C A34U, for which the self-cleavage was 0.137.

With U12G G43U, the self-cleavage was 0.454.

With A4C U12A, the self-cleavage worked out at 0.193.

On to G13C A22C, for which the self-cleavage was found to be 0.71.

Consider A22U A40G, for which the self-cleavage turned out to be 0.734.

For G7A C27U, the self-cleavage was 0.11.

A1G C15G: the self-cleavage stood at 0.125.

In the case of A22G G48U, the self-cleavage was determined as 0.334.

On to G13U A30U, for which the self-cleavage amounted to 0.749.

For U12G A34G, the self-cleavage came out at 0.608.

Turning to A40G G47U, the self-cleavage was found to be 0.143.

For G17A G42C, the self-cleavage came out at 0.192.

With C20A U31G, the self-cleavage was determined as 0.177.

G7U C8U: the self-cleavage was 0.0467.

In the case of C25U A30U, the self-cleavage came to 0.932.

On to G29C G43U, for which the self-cleavage turned out to be 0.156.

As to C26G G41U, the self-cleavage was 0.0825.

A11G U37C: the self-cleavage is 0.529.

On to U12G G47C, for which the self-cleavage was determined as 0.528.

Regarding U6G G47A, the self-cleavage came out at 0.179.

With U18C G38A, the self-cleavage stood at 0.371.

As for C15G A33U, the self-cleavage amounted to 0.121.

As for A10G A23U, the self-cleavage came to 0.92.

With A10U A11C, the self-cleavage amounted to 1.03.

For G16C A22U, the self-cleavage was found to be 0.21.

As for A4U A40C, the self-cleavage was determined as 0.0425.

For the variant C20U G43A, the self-cleavage worked out at 0.177.

On to C25G A34C, for which the self-cleavage was 0.115.

For G24U A30U, the self-cleavage is 0.109.

Take U18C G43C: the self-cleavage turned out to be 0.121.

Regarding A2C G45C, the self-cleavage is 0.0767.

As for G7C G24U, the self-cleavage was 0.0628.

Regarding U18A G38C, the self-cleavage is 0.448.

Turning to U6G C9A, the self-cleavage was found to be 0.279.

For the variant U31C G39C, the self-cleavage stood at 0.111.

Take A22G G42C: the self-cleavage turned out to be 0.0934.

As to G38C G47A, the self-cleavage amounted to 0.737.

For G16U G44C, the self-cleavage was 1.05.

Regarding C15U U37A, the self-cleavage turned out to be 0.559.

As to G17A G28C, the self-cleavage came out at 0.393.

A10U G29A: the self-cleavage is 1.08.

With C14G G39C, the self-cleavage is 0.0468.

With C8G G45U, the self-cleavage came to 0.183.

On to A2U U31A, for which the self-cleavage was 0.605.

As for C5G G48A, the self-cleavage was determined as 0.67.

As for C14A G24A, the self-cleavage is 0.18.

On to C9G C14G, for which the self-cleavage came to 0.0866.

Take C3A A4C: the self-cleavage turned out to be 0.0653.

In the case of C8G C19U, the self-cleavage stood at 0.113.

Turning to A10G G16A, the self-cleavage came to 1.13.

G41A G47C: the self-cleavage is 0.2.

Take U6C C14U: the self-cleavage worked out at 0.473.

In the case of C9U A22C, the self-cleavage is 0.779.

Turning to C9U A22U, the self-cleavage was determined as 0.313.

Consider A30G U37A, for which the self-cleavage was 0.901.

Take C9U G24U: the self-cleavage came to 0.0861.

For the variant A4C A10U, the self-cleavage was 0.203.

For C21G G48U, the self-cleavage was 0.0902.

A10C G44A: the self-cleavage was determined as 0.932.

In the case of C14G A40C, the self-cleavage stood at 0.067.

In the case of U6C A34U, the self-cleavage was found to be 0.333.

For G13U C25U, the self-cleavage is 0.129.

Turning to U12C A30U, the self-cleavage was determined as 1.04.

As for A11U C25A, the self-cleavage was determined as 0.139.

For G16C G38U, the self-cleavage is 0.535.

With A11U U37C, the self-cleavage worked out at 0.583.

With G17A A32U, the self-cleavage came out at 0.476.

As to G7A G38U, the self-cleavage was found to be 0.168.

Consider A32C G44U, for which the self-cleavage was 0.936.

For the variant A11U A22C, the self-cleavage was determined as 1.17.

For the variant A11U A22G, the self-cleavage worked out at 0.399.

Consider G45A G47A, for which the self-cleavage was found to be 0.71.

Turning to C20A G41U, the self-cleavage amounted to 0.0817.

Consider G24A C46U, for which the self-cleavage amounted to 0.107.

For C3G U37A, the self-cleavage was 0.421.

Regarding A2G U31C, the self-cleavage came to 0.3.

On to G38U A40U, for which the self-cleavage was 0.116.

As for G13C U18G, the self-cleavage came out at 0.0609.

As to A30C C46G, the self-cleavage is 0.647.

For the variant U31A A35C, the self-cleavage amounted to 0.889.

With A2C G13C, the self-cleavage was 0.0312.

Turning to A30C A34U, the self-cleavage turned out to be 0.314.

As to C15A C25G, the self-cleavage is 0.192.

For G13C C14A, the self-cleavage was found to be 0.593.

In the case of U12G A40U, the self-cleavage is 0.279.

With U12A G47C, the self-cleavage came out at 0.751.

On to A33U G43A, for which the self-cleavage was 0.233.

For the variant A1U A10C, the self-cleavage was found to be 0.0358.

For A2G U18A, the self-cleavage amounted to 0.123.

As to G7A C26A, the self-cleavage worked out at 0.0788.

In the case of A1G G24C, the self-cleavage was 0.18.

Consider C5A C25U, for which the self-cleavage came out at 0.236.

Take C26A A30C: the self-cleavage worked out at 0.0881.

For G24A A32G, the self-cleavage is 0.11.

On to C14A C20A, for which the self-cleavage turned out to be 0.165.

On to G24C A32G, for which the self-cleavage worked out at 0.0875.

As to A2U G48A, the self-cleavage was 0.353.

For the variant U37A G48A, the self-cleavage was determined as 0.797.

In the case of A10C G17C, the self-cleavage is 0.125.

With C5U C27G, the self-cleavage came out at 0.0666.

For A1C G44A, the self-cleavage came to 0.176.

Consider C15U G44A, for which the self-cleavage is 0.935.

With U37G G39U, the self-cleavage is 0.114.

As for C21U U37G, the self-cleavage turned out to be 0.0506.

U18A C19A: the self-cleavage worked out at 0.0671.

With C9G G44U, the self-cleavage was 0.427.

Take A10C: the self-cleavage stood at 1.01.
